Data as given in publication PMC2115427.

Target: urokinase plasminogen activator receptor (uPAR) of U937 cells (human (endogenous in U937)) (UniProt Q03405)
Chain of UniProt Q03405 (Q03405 23-305): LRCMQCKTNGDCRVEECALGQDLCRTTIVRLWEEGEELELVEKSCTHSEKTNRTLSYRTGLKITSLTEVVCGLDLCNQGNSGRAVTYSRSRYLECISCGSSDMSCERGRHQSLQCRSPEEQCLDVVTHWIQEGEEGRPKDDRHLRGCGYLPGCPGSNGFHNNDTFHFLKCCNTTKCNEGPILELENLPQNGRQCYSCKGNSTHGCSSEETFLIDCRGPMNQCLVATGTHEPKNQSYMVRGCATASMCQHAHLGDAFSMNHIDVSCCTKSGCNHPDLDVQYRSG

half-life of dissociation: 3 h
Substance: human urinary urokinase of high Mr (uPA) (enzyme)
